Measurements as given in the DeepSol protein solubility set.

assay: soluble on expression in E. coli; label from the status in PepcDB or PDB records

Sequence	soluble on expression in E. coli
MICYEYINDYIRKTIKKNEGFLAELEEFAKENHVPIVHPEVASLLRVIGLTLRPSRVLEVGTAIGYSAILFSTFLEPGGRIDTIDRYELMLEKARANVKKAGLQDVINIIEGDALEVLKCLEHKYDMIFLDAAKGQYPEFLPECLRLLRSGGLLISDNILYKGMVAKDELVVRRKKTIVKRLRNYLETICNTDELETSILPVGDGLAISFKK	not soluble
MIDSANRADVFLRKPAPVAPELQHEVEQFYYWEAKLLNDRRFEEWFALLAEDIHYFMPIRTTRIMRDSRLEYSGSREYAHFDDDATMMKGRLRKITSDVSWSENPASRTRHLVSNVMIVGAEAEGEYEISSAFIVYRNRLERQLDIFAGERRDTLRRNTSEAGFEIVNRTILIDQSTILANNLSFFF	soluble
MIEFDNLTYLHGKPQGTGLLKANPEDFVVVEDLGFEPDGEGEHILVRILKNGCNTRFVADALAKFLKIHSREVSFAGQKDKHAVTEQWLCARVPGKEMPDLSAFQLEGCQVLEYARHKRKLRLGALKGNAFTLVLREVSNRDDVEQRLIDICVKGVPNYFGAQRFGIGGSNLQGALRWAQTNTPVRDRNKRSFWLSAARSALFNQIVAERLKKADVNQVVDGDALQLAGRGSWFVATTEELAELQRRVNDKELMITAALPGSGEWGTQREALAFEQAAVAAETELQALLVREKVEAARRAMLLYPQQLSWNWWDDVTVEIRFWLPAGSFATSVVRELINTTGDYAHIAELEHHHHHH	soluble
MIFCTVGSGIEGYEQSFSKISVEGYDTSVHEFPLKLALAKHFASCGKIVDIDVPRDFKKRILKSPLFIIFHAKEGESPVDKALELSGTDVGGWNVVVKSLPGQQMYRDPGGVDRFKGERTLIVKVYDTPSTLSKIDLQIGLCKHFSSCGEVTGISVLVHGNLCCHESKARVDIMGKGCVDKALELSGRTADGWKIVVYFVVPPAGRKLKPTGSGHPTIGVERMKKAELKKKAKMEMMDKGKKKRKTTE	not soluble
MIFEMMGEKFDKNAPIAMQSDVFPRFIINCRDGRTIFKENDTLEFELIIFDNLTELFIQYIYVFETIGQSGLGPEKARYELLSVSDGKGNIIYKNTLLTGNAPVSDIREYISSRLDYCLNNRKNISRMTLLSSVMLNSDCKNGNKKVFFFSAEAFSYSIRERLSRLNVLEKEDEEKLNELLSDKRIINGINMKLTKIDYYIQNEQKTVTFPRFKGYIVFDIERINSYLDYFFACEKLCIGQNILLGFGRYVMG	not soluble
MIFENRLALSAMAGVNNAEFCRKQKASLVILGGFNADRRALEAAEKAVKRGRKEFLFGIDGIEGEIKKLGRRKFAVNVRSSSLEGYLNVAELVAEFEGIIEINAHCRQPEFVEIGCGEWLLFNHERLVEIVSKTSRIAPTFVKIRGGHKLDYEKIARKLFDAGCLAIHVDAMIPGGGCDFSLIERISRIGNVIGNNSFVDIESGERIIMAGAKMASAARAVLRDENFFEKMLRSPLLSQPVELSCGRFR	not soluble
MIFERIKSEGLAHLSYFVGSGNEAIVIDPRRDCQIYFDIARREGMKIKYIFETHRNEDYVIGSLELKELTDAEIYHGKGVDFKYGIFVSDGQEFNFGSMKLTALHTPGHTDESMSYALTYPESGKAPLMVFTGDALFVGDVGRTDLYGPEEIPRMAANLYESIFNKILPLGDGVILCPAHGAGSLCGGAISKREYSTLGLERIQNPALQRTDKEEFIKFKLEEKLEFPPYFKKMEQYNLQGPPLLKGLPVPELLFPKEFVKEMEKGAMVVDTRMPHSFGGAHIKGSYGIWLKGLPYYAGWVLPYDKPILLVLEEKDQLETAVSYLVRIGYDSIAGFLNGGISSWYMKALPVESLNLISVQSLKDKIEKNEEMVILDVRRDEEWEKGHIEGARHVYVGHLEENLDKVPRNSPIIVYCDSSRRSNIAASILKKKGYDMVYNVLGSMTAWKNAGYKVVKLEHHHHHH	soluble
MIFNIQRYSTHDGPGIRTVVFLKGCSLGCRWCQNPESRARSEDLLYDSRLCLAGCELCQQAAPAVITRTLDGLIIHRQNVNDSHIAALRDCCPTTALTVCGEEKSVEEIMATVLRDKPFYDRSGGGITLSGGEPFMNPTLAQALFEASHQAGIHTAVETCLHVPWKYIEPSLPFVDLFLADLKHVDEAVFQQWTDGSARRVLDNLQRLAQAGKKMIIRVPLIQGFNASEADIAAITDFAADRLQVSEIHYLPYHTLGMNKYQLLSQPYTAPDKPLDAPELLVFAQDYAQSKGLTAILRG	not soluble
MIGEIPGVAAGQPYNSRRLAHEAGVHRPLQAGICGTKATGAESIVVSGGYKDDEDYGDVIIYTGHGGRDSAGNQVSDQSLDDSGNAALVTSYLRGLPVRVIRGSQSGSPFAPSNGYRYDGLYRVASYTSKLGIDGFLIWQFRMEAYEETPTPKITKVRALFAEPTDCAKQDPVAASGTEQPERVTSMVQRIVRSSAIADTVKAWHQDQCQTCGIHIEVPGGFYSEGAHIQALGRPHNGPDRTDNMLCLCPNCHVMLDAGAIVLSDDLIVSKNGQLVGPLRTHPKHKVNIECVRRHRERWRQLEHHHHHH	not soluble
MIGFAACECIIYNARSLKDKRAVLQRVMTRIRQKYNVSVAEIDHQDAWQRATIGLVAITSSRRATERELERALALIDSFPELERAATSFEWL	not soluble
MIGGLFVYNHKGEVLISRIYRDDVTRNAVDAFRVNVIHARQQVRSPVTNMARTSFFHVKRGNVWICAVTRQNVNAAMVFEFLKRFADTMQSYFGKLNEENVKNNFVLIYELLDEILDFGYPQNTDPGVLKTFITQQGVRTATKEEQSQITSQVTGQIGWRREGIKYRRNELFLDVIEYVNLLMNQQGQVLSAHVAGKVAMKSYLSGMPECKFGINDKITIEGKSKPGSDDPNKASRAAVAIDDCQFHQCVKLTKFETEHAISFIPPDGEYELMRYRTTKDIQLPFRVIPLVREVSRNKMEVKVVVKSNFKPSLLAQKLEVRIPTPPNTSGVQLICMKGKAKYKAGENAIVWKIKRMAGMKESQISAEIDLLSTGNVEKKKWNRPPVSMNFEVPFAPSGLKVRYLKVFEPKLNYSDHDVIKWVRYIGRSGLYETRC	not soluble
MIGITGVTGKLGSKVAQLISEQGISARHLARNPQRAALYDNAELVQVAFENSLEAVEALKGIDVLLMVSASESPNRLQQHFAFLDAAHEAGVKHIVYTSFYNAATEATFTLARDHAKTEKYIKERGFTYTFLRDNFYLDFFLDLCLNNGEIRGPAGNGKVSAVARQDVSEVATTILAKPDKWKNQLLNMTGPADLSMADIVHFVSEQKGEIIPYIDESIEEAYASRKAWPAQDWEYDAWVSTYTAIKEGKQAGVSSDIERVLGRPATSLEQLVKTIK	not soluble
MIGKRFFQTTSKKIAFAFDIDGVLFRGKKPIAGASDALKLLNRNKIPYILLTNGGGFSERARTEFISSKLDVDVSPLQIIQSHTPYKSLVNKYSRILAVGTPSVRGVAEGYGFQDVVHQTDIVRYNRDIAPFSGLSDEQVMEYSRDIPDLTTKKFDAVLVFNDPHDWAADIQIISDAINSENGMLNTLRNEKSGKPSIPIYFSNQDLLWANPYKLNRFGQGAFRLLVRRLYLELNGEPLQDYTLGKPTKLTYDFAHHVLIDWEKRLSGKIGQSVKQKLPLLGTKPSTSPFHAVFMVGDNPASDIIGAQNYGWNSCLVKTGVYNEGDDLKECKPTLIVNDVFDAVTKTLEKYA	soluble
MIGRVFRIFREKGGILKALGLWEWYENLPHKYQKKVKHYYSLKTIKSINFPYKAKHFDTGEVENVLYTKRTFLGTIAQTALLEGDLEFAEWLYNEALKMEGSPYEAHLILNDLVLLAQKQRDLEKVKKYVLQDVELYPEYKEELKSRWGGTLPQIMAFEIYVYLLEREGKIKEALELVEWIKKEGITYPYYDQVKERLLQKLK	not soluble
MIGYLFGNRVLVDDKELPLIEAYYLLDKGELEVYEDDKKLSKEEFLKKCLTYDERFLIRYKAYKELRDKGYTLGTALKFGADFRVYDIGVIPKKGKRSEREHSKWVLYPVSKDETFDFYEFASKNRVAHSTRKKMLMGIVSDKIEFIEVSWKKP	soluble
MIHLYDAKSFAKLRAAQYAAFHTDAPGSWFDHTSGVLESVEDGTPVLAIGVESGDAIVFDKNAQRIVAYKEKSVKAEDGSVSVVQVENGFMKQGHRGWLVDLTGELVGCSPVVAEFGGHRYASGMVIVTGKGNSGKTPLVHALGEALGGKDKYATVRFGEPLSGYNTDFNVFVDDIARAMLQHRVIVIDSLKNVIGAAGGNTTSGGISRGAFDLLSDIGAMAASRGCVVIASLNPTSNDDKIVELVKEASRSNSTSLVISTDVDGEWQVLTRTGEGLQRLTHTLQTSYGEHSVLTIHTSKQSGGKQASGKAIQTVIKNDELESVLRRLTSN	soluble
